Data: patent publication US20200230168, “NUCLEIC ACID OLIGOMERS AND USES THEREFOR” (Queensland University of Technology, published 2020)

Key:
[1] = biological target: T1, hSSB1 (Homo sapiens, UniProt Q9BQ15 Q9BQ15:1-211); experiment: EMSA; 10 mM Tris, 1 mM EDTA, 37C; Table 7 gives 3 nM; settings: label: FAM
Protocol: (§1) FIG. 15 is a graphic representation of hSSB1 EMSAs showing increasing concentrations of hSSB1 protein vs. 5 nM of FAM-labeled LSA_In3E3 sequence in either phosphorothioate (PS) or phosphodiester (PD) chemistry, or negative control sequence (Neg_C) in phosphorothioate chemistry. Graphs represent quantification of at least triplicate experiments, expressed as the fraction of oligomer compound bound to the protein. Purified protein was incubated with 5 nM of labeled oligomer compound for 15 min at 37° C. in a buffer consisting of 10 mM Tris-HCl (pH7.5), 100 mM KCl, 0.01% IGEPAL, 1 mM EDTA and 50 ng/μL BSA.
(§2) FAM-labeled non-targeting PS compound, LSA_In3E3, PD compounds, DNA_In3E3 and RNA_In3E3, and a negative control oligomer compound, NEGC, were incubated separately with purified mouse SSB1 (mSSB1), hSSB1 and human SSB2 (hSSB2) proteins.

[2] = biological target: THOC4 (ALYREF) (UniProt Q86V81 Q86V81:2-257); experiment: EMSA; 10 mM Tris pH 8.0, 100 mM NaCl, 1 mM EDTA, 37C
[3] = biological target: T2, mSSB1 (Mus musculus, UniProt Q8R2Y9 Q8R2Y9:1-212); experiment: EMSA; 1 mM EDTA, 37C; settings: label: FAM
T2 sequence (Q8R2Y9 whole entry, one chain of several): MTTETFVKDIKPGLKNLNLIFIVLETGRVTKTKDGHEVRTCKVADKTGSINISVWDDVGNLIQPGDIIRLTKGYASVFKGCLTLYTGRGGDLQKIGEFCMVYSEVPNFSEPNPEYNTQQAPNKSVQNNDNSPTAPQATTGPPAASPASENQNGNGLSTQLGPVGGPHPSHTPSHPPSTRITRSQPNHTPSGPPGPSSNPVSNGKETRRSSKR
Protocol: as §2

[4] = biological target: hSSB2 (Homo sapiens, UniProt Q96AH0 Q96AH0:1-204); experiment: EMSA; Tris pH 7.5, 100 mM KCl, 1 mM EDTA, 37C; single EMSA; settings: label: FAM
Sequence of hSSB2 (Q96AH0 whole entry, one chain of several): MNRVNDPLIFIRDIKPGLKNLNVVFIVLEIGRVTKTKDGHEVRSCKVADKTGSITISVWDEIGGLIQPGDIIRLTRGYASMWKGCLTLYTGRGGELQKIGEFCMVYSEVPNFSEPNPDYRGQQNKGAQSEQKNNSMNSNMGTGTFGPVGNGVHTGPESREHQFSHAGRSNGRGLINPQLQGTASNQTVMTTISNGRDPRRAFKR
Protocol: FIG. 16 is a graphic representation of a single EMSA showing increasing concentrations of hSSB2 protein vs. 5 nM of FAM-labeled LSA_In3E3 sequence or negative control sequence (Neg_C) in phosphorothioate chemistry. Graphs represent the fraction of oligo bound to the protein. Purified protein was incubated with 5 nM of labeled oligo for 15 min at 37° C. in a buffer consisting of 10 mM Tris-HCl (pH7.5), 100 mM KCl, 0.01% IGEPAL, 1 mM EDTA and 50 ng/μL BSA.
as §2

[5] = biological target: T2, mSSB1; experiment: EMSA; settings: label: FAM
Protocol: as §2

[6] = biological target: T1, hSSB1; experiment: EMSA; 10 mM Tris, 1 mM EDTA, 37C; Table 7 gives 9 nM; settings: label: FAM
Protocol: as §1, §2

T1 sequence (Q9BQ15 whole entry, one chain of several): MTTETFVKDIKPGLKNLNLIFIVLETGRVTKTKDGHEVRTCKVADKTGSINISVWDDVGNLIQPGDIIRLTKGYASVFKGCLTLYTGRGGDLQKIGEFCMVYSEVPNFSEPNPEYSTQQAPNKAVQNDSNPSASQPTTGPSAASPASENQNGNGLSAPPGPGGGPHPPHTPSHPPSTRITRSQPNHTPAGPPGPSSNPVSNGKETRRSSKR

Binder | Kd [1] [nM] | Kd [2] [nM] | Kd [3] [nM] | binding result [4] | Kd [5] [nM] | Kd [6] [nM]
CCAGUGAGCCGGACUUGCCU (ssRNA, 2'-OMe all, PS all) [LSA_In3E3] | 3.29 | 81 | 4.13 | binds | – | –
CUCAUUCCUACCGACACCCC (ssRNA, 2'-OMe all, PS all) [Neg_C] | – | 150 | – | – | 15.4 | 10
